# Data: PMC6693180
# Target: DTL (UniProt Q9NZJ0)
# Assay: co-IP with His tag antibody
# Conditions: reference: His-PDCD4 wild type; sites S67
substance,measurement,value
PDCD4 (from UniProt Q53EL6) His-PDCD4(S67A),binding against the reference,lost
